Laboratory results published in patent US20140105889A1 (published 2014).
Substitutions are numbered along the chain they refer to. Each block holds one binder with its values, some of them ahead of it.

Experiments:
[1] = biological target: T1, human FcγRIa (human, UniProt P12314 16-292, limits assumed); assay: SPR (Biacore), FcγR over captured antibody; amount bound relative to IL6R-BF648/IL6R-L x100
T1 construct: also called CD64
T1 sequence (P12314 16-292 limits assumed): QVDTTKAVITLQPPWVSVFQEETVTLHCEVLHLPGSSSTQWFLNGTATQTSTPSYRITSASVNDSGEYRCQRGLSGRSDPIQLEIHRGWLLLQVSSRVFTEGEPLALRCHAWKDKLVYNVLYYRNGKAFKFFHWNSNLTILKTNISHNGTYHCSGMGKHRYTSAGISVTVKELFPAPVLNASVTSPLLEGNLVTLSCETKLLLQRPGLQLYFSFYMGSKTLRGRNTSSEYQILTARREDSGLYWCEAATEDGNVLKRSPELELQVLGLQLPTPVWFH

[2] = biological target: T2, human FcγRIIa type R (human, UniProt P12318 36-217); assay: as above
T2 construct: also called FcγRIIaR; FcγRIIa(R)
T2 chain: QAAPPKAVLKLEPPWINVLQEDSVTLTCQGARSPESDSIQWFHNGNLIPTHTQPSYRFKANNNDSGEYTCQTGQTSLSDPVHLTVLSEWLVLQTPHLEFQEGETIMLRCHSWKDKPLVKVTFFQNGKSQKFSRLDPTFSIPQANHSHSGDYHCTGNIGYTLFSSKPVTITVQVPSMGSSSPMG

[3] = biological target: T3, human FcγRIIa type H (human, UniProt P12318 36-217); assay: as above
T3 construct: Whole entry named for FcγRIIa allotype H131 (AAH20823.1); also called FcγRIIaH; FcγRIIa(H)
T3 sequence: T2 chain with R133H

[4] = biological target: T4, human FcγRIIIa type V (human, UniProt P08637 17-208, limits assumed); assay: as above
T4 construct: also called FcγRIIIaV; FcγRIIIa(V)
T4 sequence (P08637 other isoform, or with tags, fused parts or gaps limits assumed): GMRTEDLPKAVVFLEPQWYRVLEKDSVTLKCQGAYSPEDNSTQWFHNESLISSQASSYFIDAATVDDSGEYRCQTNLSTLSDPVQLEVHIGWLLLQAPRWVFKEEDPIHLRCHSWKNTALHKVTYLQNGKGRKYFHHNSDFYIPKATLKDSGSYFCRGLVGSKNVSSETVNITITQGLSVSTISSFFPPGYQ

[5] = biological target: T5, human FcγRIIb (human, UniProt P31994 43-217); assay: as above
T5 construct: also called FcγIIB
T5 sequence: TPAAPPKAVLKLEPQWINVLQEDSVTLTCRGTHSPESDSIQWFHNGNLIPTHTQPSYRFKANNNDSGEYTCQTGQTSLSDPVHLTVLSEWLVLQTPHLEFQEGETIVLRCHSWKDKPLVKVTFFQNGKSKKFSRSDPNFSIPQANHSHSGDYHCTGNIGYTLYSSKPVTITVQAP

[6] = biological target: T6, human FcγRIa (human, UniProt P12314 16-292, limits assumed); assay: SPR (Biacore); binding amount divided by that of control IL6R-BF648/IL6R-L, x100
T6 construct: also called FcgRIa; CD64
T6 sequence (P12314 16-292 limits assumed): as the sequence (P12314 16-292 limits assumed) above
Experimental: (§1) According to the following method, relative binding activities were calculated for the results of analyzing interactions with the respective FcγRs.

[7] = biological target: T7, human FcγRIIIa type V (human, UniProt P08637 17-208, limits assumed); assay: as above
T7 construct: The assay used allotype V158; also called FcgRIIIaV; FcγRIIIa(V)
T7 sequence (P08637 other isoform, or with tags, fused parts or gaps limits assumed): as the sequence (P08637 other isoform, or with tags, fused parts or gaps limits assumed) above
Experimental: as §1

[8] = biological target: T8, human FcγRIIb (human, UniProt P31994 43-217, limits assumed); assay: as above
T8 construct: also called FcgRIIb; FcγIIB
T8 sequence: T5 sequence
Experimental: as §1

[9] = biological target: T9, human FcγRIIa type H (human, UniProt P12318 36-217); assay: as above
T9 construct: also called FcgRIIaH; FcγRIIa(H)
T9 sequence: T2 chain with R133H
Experimental: as §1

relative binding [1]: 60 relative value (IL6R-BF648/IL6R-L = 100) | relative binding [2]: 81 relative value (IL6R-BF648/IL6R-L = 100) | relative binding [3]: 93 relative value (IL6R-BF648/IL6R-L = 100) | relative binding [4]: 97 relative value (IL6R-BF648/IL6R-L = 100) | relative binding [5]: 103 relative value (IL6R-BF648/IL6R-L = 100)
B1: IL6R-BP912/IL6R-L (antibody, human IgG1)
heavy: QVQLQESGPGLVKPSETLSLTCAVSGHSISHDHAWSWVRQPPGEGLEWIGFISYSGITNYNPSLQGRVTISRDNSKNTLYLQMNSLRAEDTAVYYCARSLARTTAMDYWGEGTLVTVSSASTKGPSVFPLAPSSKSTSGGTAALGCLVKDYFPEPVTVSWNSGALTSGVHTFPAVLQSSGLYSLSSVVTVPSSSLGTQTYICNVNHKPSNTKVDKKVEPKSCDKTHTCPPCPAPELLGGDSVFLFPPKPKDTLMISRTPEVTCVVVDVSHEDPEVKFNWYVDGVEVHNAKTKPREEQYNSTYRVVSVLTVLHQDWLNGKEYKCKVSNKALPRPIEKTISKAKGQPREPQVYTLPPSRDELTKNQVSLTCLVKGFYPSDIAVEWESNGQPENNYKTTPPVLDSDGSFFLYSKLTVDKSRWQQGNVFSCSVMHEALHNHYTQESLSLSP
light: DIQMTQSPSSLSASVGDRVTITCRASQDISSYLNWYQQKPGKAPKLLIYYTSRLHSGVPSRFSGSGSGTDFTFTISSLQPEDIATYYCQQGNTLPYTFGQGTKVEIK
notes: copies: 2 + 2

relative binding activity [6]: 128 % of IL6R-BF648/IL6R-L | relative binding activity [7]: 87 % of IL6R-BF648/IL6R-L | relative binding activity [8]: 165 % of IL6R-BF648/IL6R-L
B2: IL6R-BP211/IL6R-L (antibody, human IgG1)
heavy: B1 heavy with E235D, H270D, P273G, K328A
light: B1 light
notes: The common L chain is IL6R-L; copies: 2 + 2

relative binding activity [9]: 224 % of IL6R-BF648/IL6R-L | relative binding activity [6]: 50 % of IL6R-BF648/IL6R-L | relative binding activity [7]: 155 % of IL6R-BF648/IL6R-L
B3: IL6R-BP190/IL6R-L (antibody, human IgG1)
heavy: B1 heavy with G239D, H270D, P273G, R332K
light: B1 light
notes: as for B2

relative binding activity [9]: 205 % of IL6R-BF648/IL6R-L | relative binding activity [6]: 68 % of IL6R-BF648/IL6R-L | relative binding activity [7]: 124 % of IL6R-BF648/IL6R-L | relative binding activity [8]: 157 % of IL6R-BF648/IL6R-L
B4: IL6R-BP187/IL6R-L (antibody, human IgG1)
heavy: B1 heavy with L236Y, P273G, K328A, R332K
light: B1 light
notes: as for B2

relative binding [1]: 117 relative value (IL6R-BF648/IL6R-L = 100) | relative binding [2]: 181 relative value (IL6R-BF648/IL6R-L = 100) | relative binding [3]: 133 relative value (IL6R-BF648/IL6R-L = 100) | relative binding [4]: 145 relative value (IL6R-BF648/IL6R-L = 100) | relative binding [5]: 110 relative value (IL6R-BF648/IL6R-L = 100)
B5: IL6R-BP119/IL6R-L (antibody, human IgG1)
heavy: B1 heavy with K328M, R332A
light: B1 light
notes: copies: 2 + 2

relative binding activity [9]: 122 % of IL6R-BF648/IL6R-L | relative binding activity [6]: 109 % of IL6R-BF648/IL6R-L | relative binding activity [7]: 118 % of IL6R-BF648/IL6R-L | relative binding activity [8]: 172 % of IL6R-BF648/IL6R-L
B6: IL6R-BP192/IL6R-L (antibody, human IgG1)
heavy: B1 heavy with E235D, H270D, P273G, Y298D, R332K
light: B1 light
notes: as for B2

relative binding [1]: 118 relative value (IL6R-BF648/IL6R-L = 100) | relative binding [2]: 155 relative value (IL6R-BF648/IL6R-L = 100) | relative binding [3]: 135 relative value (IL6R-BF648/IL6R-L = 100) | relative binding [4]: 157 relative value (IL6R-BF648/IL6R-L = 100) | relative binding [5]: 113 relative value (IL6R-BF648/IL6R-L = 100)
B7: IL6R-BP121/IL6R-L (antibody, human IgG1)
heavy: B1 heavy with K328Q, R332A
light: B1 light
notes: copies: 2 + 2

relative binding [1]: 101 relative value (IL6R-BF648/IL6R-L = 100) | relative binding [2]: 132 relative value (IL6R-BF648/IL6R-L = 100) | relative binding [3]: 128 relative value (IL6R-BF648/IL6R-L = 100) | relative binding [4]: 144 relative value (IL6R-BF648/IL6R-L = 100) | relative binding [5]: 104 relative value (IL6R-BF648/IL6R-L = 100)
B8: IL6R-BP118/IL6R-L (antibody, human IgG1)
heavy: B1 heavy with K328S, R332A
light: B1 light
notes: copies: 2 + 2

relative binding [1]: 105 relative value (IL6R-BF648/IL6R-L = 100) | relative binding [2]: 128 relative value (IL6R-BF648/IL6R-L = 100) | relative binding [3]: 127 relative value (IL6R-BF648/IL6R-L = 100) | relative binding [4]: 127 relative value (IL6R-BF648/IL6R-L = 100) | relative binding [5]: 101 relative value (IL6R-BF648/IL6R-L = 100)
B9: IL6R-BP110/IL6R-L (antibody, human IgG1)
heavy: B1 heavy with H270N, R332A
light: B1 light
notes: copies: 2 + 2

relative binding [1]: 121 relative value (IL6R-BF648/IL6R-L = 100) | relative binding [2]: 197 relative value (IL6R-BF648/IL6R-L = 100) | relative binding [3]: 128 relative value (IL6R-BF648/IL6R-L = 100) | relative binding [4]: 138 relative value (IL6R-BF648/IL6R-L = 100) | relative binding [5]: 110 relative value (IL6R-BF648/IL6R-L = 100)
B10: IL6R-BP100/IL6R-L (antibody, human IgG1)
heavy: B1 heavy with S269A, R332A
light: B1 light
notes: copies: 2 + 2
